Laboratory results as given in the supplement of paper PMC7877785.
± gives the uncertainty stated by the source.

Test: self-splicing fitness, log relative to wild type (ln ratio); higher = more splicing; Tetrahymena group I intron in knt gene, E. coli kanamycin selection, DiMSum; sequences stand for … in CUCUCU…GGAGGGAAAAGUUAUCAGGCAUGCACCUGGUAGCUAGUCUUUAAACCAAUAGAUUGCAUCGGUUUAAAAGGCAAGACCGUCAAAUUGCGGGAAAGGGGUCAACAGCCGUUCAGUACCAAGUCUCAGGGGAAACUUUGAGAUGGCCUUGCAAAGGGUAUGGUAAUAAGCUGACGGACAUGGUCCUAACCACGCAGCCAAGUCCUAAGUCAACAGAUCUUCUGUUGAUAUGGAUGCAGUUCACAGACUAAAUGUCGGUCGGGGAAGAUGUAUUCUUCUCAUAAGAUAUAGUCGGACCUCUCCUUAAUGGGAGCUAGCGGAUGAAGUGAUGCAACACUGGAGCCGCUGGGAACUAAUUUGUAUGCGAAAGUAUAUUGAUUAGUUUUGGAGUACUCGUGGUCG
Summary of the method: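 Pooled colonies went to amplicon sequencing on an Illumina HiSeq 2500 after six replicate transformations. The plates were LB agar with 100 μg/mL carbenicillin, 50 μM IPTG and 0.2% rhamnose, with or without 25 μg/mL kanamycin, incubated overnight at 37°C or 30°C. The E. coli BL21(DE3) library had all eight P1ex-region intron nucleotides randomised, the intron placed in the knt kanamycin-resistance gene on pET-22b(+). DiMSum fitness is the error-weighted combination of replicate fold changes, kanamycin against none, normalised to wild type.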

Row | Sequence | self-splicing fitness (ln) (30 °C) | self-splicing fitness (ln) (37 °C)
1 | AUAUAGCAAUAUUACGGCAC | -2 ± 0.24 | 0.951 ± 0.25
2 | AUAUAGCAAUAUUACGGCCA | -1.28 ± 0.22 | -0.185 ± 0.26
3 | AUAUAGCAAUAUUACGGCGG | -1.04 ± 0.17 | -0.534 ± 0.26
4 | AUAUAGCAAUAUUACGGUAG | -3.13 ± 0.18 | -1.74 ± 0.21
5 | AUAUAGCAAUAUUACGUAGC | -4.04 ± 0.39 | -2.54 ± 0.33
6 | AUAUAGCAAUAUUACGUCCA | -1.87 ± 0.34 | -0.0483 ± 0.29
7 | AUAUAGCAAUAUUACGUCGU | -1.12 ± 0.12 | -0.541 ± 0.18
8 | AUAUAGCAAUAUUACGUGAU | -1.4 ± 0.092 | -0.895 ± 0.14
9 | AUAUAGCAAUAUUACGUGCG | -0.942 ± 0.094 | -0.942 ± 0.13
10 | AUCAAGCAAUAUUACGAACC | -1.05 ± 0.18 | -0.734 ± 0.25
11 | AUCAAGCAAUAUUACGACGC | -0.837 ± 0.099 | -0.402 ± 0.12
12 | AUCAAGCAAUAUUACGACUA | -0.634 ± 0.076 | 0.132 ± 0.088
13 | AUCAAGCAAUAUUACGAGUG | -2.19 ± 0.1 | -1.28 ± 0.14
14 | AUCAAGCAAUAUUACGCAAG | -1.99 ± 0.15 | -0.935 ± 0.15
15 | AUCAAGCAAUAUUACGCCGA | -1.02 ± 0.14 | -0.375 ± 0.17
16 | AUCAAGCAAUAUUACGCGAG | -1.3 ± 0.081 | -0.224 ± 0.086
17 | AUCAAGCAAUAUUACGCUGG | -2.36 ± 0.096 | -0.84 ± 0.12
18 | AUCAAGCAAUAUUACGGGCA | -1.42 ± 0.098 | -0.95 ± 0.098
19 | AUCAAGCAAUAUUACGGUAC | -3.8 ± 0.23 | -0.246 ± 0.12
20 | AUCAAGCAAUAUUACGGUCC | -1.55 ± 0.13 | -1.75 ± 0.17
21 | AUCAAGCAAUAUUACGGUGU | -1.7 ± 0.076 | -1.11 ± 0.088
22 | AUCAAGCAAUAUUACGUAAA | -2.59 ± 0.13 | -1.11 ± 0.12
23 | AUCAAGCAAUAUUACGUCCA | -1.23 ± 0.09 | -0.319 ± 0.11
24 | AUCAAGCAAUAUUACGUCGG | -3.01 ± 0.13 | -1.29 ± 0.12
25 | AUCAAGCAAUAUUACGUGAU | -3.81 ± 0.2 | -2.23 ± 0.17
26 | AUCAAGCAAUAUUACGUGGG | -3.29 ± 0.14 | -2.04 ± 0.11

Row | Sequence | self-splicing fitness (ln) (30 °C) | self-splicing fitness (ln) (37 °C)
27 | AUCAAGCAAUAUUACGUGUG | -1.57 ± 0.069 | -1.32 ± 0.071
28 | AUCAAGCAAUAUUACGUUAA | -3.14 ± 0.11 | -1.87 ± 0.093
29 | AUCAAGCAAUAUUACGUUAC | -5.49 ± 0.45 | -2.82 ± 0.27
30 | AUCAAGCAAUAUUACGUUCA | -1.91 ± 0.11 | -0.446 ± 0.13
31 | AUCAAGCAAUAUUACGUUUC |  | -1.52 ± 0.34
32 | AUCCAGCAAUAUUACGAAAA | -1.79 ± 0.12 | -1.02 ± 0.12
33 | AUCCAGCAAUAUUACGAGUU | -1.33 ± 0.063 | -0.782 ± 0.077
34 | AUCCAGCAAUAUUACGAUGU | -0.743 ± 0.066 | 0.613 ± 0.093
35 | AUCCAGCAAUAUUACGCAAC | -2.21 ± 0.13 | -0.741 ± 0.12
36 | AUCCAGCAAUAUUACGCACG | -1.68 ± 0.12 | -0.334 ± 0.13
37 | AUCCAGCAAUAUUACGCCGU | -0.864 ± 0.096 | -0.133 ± 0.12
38 | AUCCAGCAAUAUUACGCCUU | -0.818 ± 0.067 | -0.214 ± 0.082
39 | AUCCAGCAAUAUUACGCGAU | -1.86 ± 0.15 | -2.42 ± 0.25
40 | AUCCAGCAAUAUUACGCUAU | -1.51 ± 0.09 | -1.26 ± 0.1
41 | AUCCAGCAAUAUUACGGCCC | -0.946 ± 0.2 | 0.127 ± 0.21
42 | AUCCAGCAAUAUUACGGCUG | -3.69 ± 0.39 | -2.43 ± 0.27
43 | AUCCAGCAAUAUUACGGGUC | -3.06 ± 0.12 | -1.62 ± 0.13
44 | AUCCAGCAAUAUUACGGUGA | -1.55 ± 0.096 | -1.17 ± 0.11
45 | AUCCAGCAAUAUUACGGUUG | -2.95 ± 0.1 | -1.03 ± 0.087
46 | AUCCAGCAAUAUUACGUAAU | -0.922 ± 0.072 | -0.492 ± 0.079
47 | AUCCAGCAAUAUUACGUAUC | -3.8 ± 0.27 | -2.26 ± 0.2
48 | AUCCAGCAAUAUUACGUCAC | -2.35 ± 0.19 | -2.44 ± 0.22
49 | AUCCAGCAAUAUUACGUCCU | -1.47 ± 0.11 | -0.253 ± 0.14
50 | AUCCAGCAAUAUUACGUCUC | -1.84 ± 0.12 | -0.869 ± 0.11
51 | AUCCAGCAAUAUUACGUGUA | -1.71 ± 0.06 | -0.487 ± 0.059
52 | AUCCAGCAAUAUUACGUUCG | -2.47 ± 0.1 | -0.92 ± 0.12

Row | Sequence | self-splicing fitness (ln) (30 °C) | self-splicing fitness (ln) (37 °C)
53 | AUCGAGCAAUAUUACGACCG |  | -1.63 ± 0.36
54 | AUCGAGCAAUAUUACGAGCA | -1.2 ± 0.12 | -0.963 ± 0.14
55 | AUCGAGCAAUAUUACGAUAA | -2.7 ± 0.26 | -1.74 ± 0.21
56 | AUCGAGCAAUAUUACGAUAU | -2.14 ± 0.17 | -0.583 ± 0.14
57 | AUCGAGCAAUAUUACGAUUA | -2.47 ± 0.23 | 0.0165 ± 0.12
58 | AUCGAGCAAUAUUACGCAAU | -2.08 ± 0.21 | -2.75 ± 0.4
59 | AUCGAGCAAUAUUACGCAUC | -2.77 ± 0.48 | 
60 | AUCGAGCAAUAUUACGCAUU | -1.6 ± 0.24 | -3.11 ± 0.3
61 | AUCGAGCAAUAUUACGCGCA | -1.59 ± 0.17 | -0.0318 ± 0.17
62 | AUCGAGCAAUAUUACGCGUA | -1.93 ± 0.17 | -1.01 ± 0.14
63 | AUCGAGCAAUAUUACGCUCA | -1.09 ± 0.26 | -0.721 ± 0.4
64 | AUCGAGCAAUAUUACGCUUU | -2.98 ± 0.15 | -2.29 ± 0.18
65 | AUCGAGCAAUAUUACGGAUA | -3.67 ± 0.33 | -1.92 ± 0.25
66 | AUCGAGCAAUAUUACGGCAG |  | -2.63 ± 0.46
67 | AUCGAGCAAUAUUACGGCAU | -0.455 ± 0.098 | -0.101 ± 0.1
68 | AUCGAGCAAUAUUACGGCUC | -1.39 ± 0.36 | -1.56 ± 0.49
69 | AUCGAGCAAUAUUACGGGCG | -2.97 ± 0.16 | -2.37 ± 0.19
70 | AUCGAGCAAUAUUACGGGCU | -4.05 ± 0.23 | -2.94 ± 0.26
71 | AUCGAGCAAUAUUACGGGGU | -3.4 ± 0.21 | -2.52 ± 0.19
72 | AUCGAGCAAUAUUACGUCGG | -2 ± 0.13 | -1.42 ± 0.16
73 | AUCGAGCAAUAUUACGUCGU | -2.19 ± 0.13 | -1.2 ± 0.14
74 | AUCGAGCAAUAUUACGUGCU | -2.72 ± 0.2 | -2 ± 0.27
75 | AUCGAGCAAUAUUACGUGUG | -3.04 ± 0.13 | -2.92 ± 0.18
76 | AUCGAGCAAUAUUACGUUUC |  | -2.81 ± 0.31
77 | AUCUAGCAAUAUUACGAAAA |  | -2.38 ± 0.33
78 | AUCUAGCAAUAUUACGAAAC |  | -1.96 ± 0.49
